Assay results taken from paper PMC3195435.

What was measured:
Settings in all cases: 4% glycerol, 1 mM MgCl2, 1 mM DTT, 50 mM NaCl, 10 mM Tris-HCl pH 7.5, room temperature 30 min; EMSA on 4% native PAGE in 45 mM Tris-borate, 2 mM EDTA pH 8.3 at …
[1] = test system: anti-FLAG M2 antibody (mouse); assay: bead pull-down, competition
[2] = test system: anti-FLAG M2 antibody (mouse); assay: competition
[3] = test system: anti-FLAG M2 antibody (mouse); assay: EMSA

TCGATTTCCTTAGTTGTCTTCCTTAGTGAG [ABA]
IC50 [1]: 96 nM | binding signal (% inhibition of Flag-TRF2dB capture) [2]: 45 | Kd [3]: 80 nM

TCGATTTCCTTAGTTGTCTTCCTTAGTTGTCTTCCTTAGTTGTCTTCCTTAGTGAG [3XABA]
binding signal (% inhibition of Flag-TRF2dB capture) [2]: 62 | binding signal (% release of bound Flag-TRF2dB) [2]: 36
